Target: recombinant secreted soluble PSCA with C-terminal 6XHis and MYC tag (human)
Experiment: SPR (BIAcore), recombinant PSCA immobilised at low density (30 RU), mAb in solution

Sequence of recombinant secreted soluble PSCA with C-terminal 6XHis and MYC tag (human) (chain, as listed by the source): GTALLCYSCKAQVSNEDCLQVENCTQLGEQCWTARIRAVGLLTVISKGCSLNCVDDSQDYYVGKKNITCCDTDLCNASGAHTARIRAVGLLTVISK

## anti-PSCA monoclonal antibody 1G8
  Kd: 1 nM
  kon: 168000 M⁻¹ s⁻¹
